How the values were obtained:
[1] = test system: PKC-δ in the nucleus of primary rat cardiac fibroblasts; assay: Inhibition of MBG-induced PKC-δ nuclear translocation (Western blot); conditions: MBG 10 nM; FIG. 2b
Description: MBG was incubated with an anti-MBG antibody prior to addition to cultured primary rat cardiac fibroblasts. Nuclei were isolated 30 min later and analyzed for amount of PKC-6.

[2] = Competitive ELISA, relative CTS specificity, free MBG as competitor; format: binding; conditions: competition with immobilized MBG-BSA; normalized to MBG = 100%
Description: (§1) The specificity (relative affinity) of anti-MBG antibodies for MBG relative to various cardiotonic steroids (CTSs) was determined in a competitive ELISA. Each anti-MBG antibody was tested for its binding to immobilized MBG in the presence of free MBG, resibufogenin (RBG), cinobufagin (CINO), ouabain (OUB) or digoxin (DIG) as a competitor. A constant amount of an anti-MBG antibody (typically 1-5 μg/mL) and varying concentrations of each CTS (from 10^−12M to 10^−5M) were pre-incubated before being added to the MBG-BSA-coated wells. After washing of the wells, an anti-human Fc, HRP-conjugated secondary antibody (at 1:5000 dilution) was added to the wells and incubated at 37° C. for 1 hr. After washing of the wells, an appropriate HRP reagent (e.g., TMB ultra, Thermo Fisher) was added to the wells. OD at 450 nm was measured by a microplate reader. MBG at 10 μM was assumed to be 100% competed, and MBG at 1 pM was assumed to be 0% competed. The data was plotted as a titration of antibody-antigen binding relative to free CTS concentration in the competition reaction to determine the free CTS concentration (μM) giving 50% maximal binding of antibody to immobilized MBG. The relative specificity of an antibody for a CTS was normalized to MBG=100%.

[3] = ELISA avidity estimate on MBG-KLH; format: binding; conditions: wells coated with 2 μg/ml MBG-KLH; IgG
Description: (§2) The avidity of anti-MBG antibodies for MBG was estimated in an ELISA. Wells of a microtiter plate were coated with 2 μg/ml of either MBG-bovine serum albumin (BSA) or MBG-keyhole limpet hemocyanin (KLH). The wells were then blocked with 1% BSA. A test IgG antibody at varying concentrations (typically from about 0.0001 nM to about 25 nM) was added to the wells. The test IgG bound to immobilized MBG was detected with an anti-human Fc, horseradish peroxidase (HRP)-conjugated secondary antibody (Jackson ImmunoResearch). After washing of the wells, an appropriate HRP reagent (e.g., TMB ultra, Thermo Fisher) was added to the wells. Optical density (OD) at 450 nm was measured by a microplate reader. The concentration of test antibody at the midpoint of the binding curve is an estimate of avidity for MBG.

[4] = Competitive ELISA, relative CTS specificity, DIG as competitor; format: binding; conditions: competition with immobilized MBG-BSA; normalized to MBG = 100%
Description: as §1

[5] = Competitive ELISA, free CTS competitors overall (summary and footnote); format: binding; conditions: competitors RBG, CINO, OUB, DIG; Table 2
Description: as §1

[6] = Competitive ELISA, relative CTS specificity, CINO as competitor; format: binding; conditions: competition with immobilized MBG-BSA; normalized to MBG = 100%
Description: as §1

[7] = ELISA avidity estimate on MBG-BSA; format: binding; conditions: wells coated with 2 μg/ml MBG-BSA; IgG
Description: as §2

[8] = test system: pregnant Sprague-Dawley rats; assay: DOCA/saline rat model of pre-eclampsia; format: in vivo; conditions: tail cuff; baseline; antibodies 2.2 mg/kg/d i.p. days 16-18 in PDS (DOCA/saline) rats; MBG 7.65 μg/kg/d in normal pregnant rats (NPM); N = 10
[9] = test system: pregnant Sprague-Dawley rats; assay: DOCA/saline rat model of pre-eclampsia; format: in vivo; conditions: antibodies 2.2 mg/kg/d i.p. days 16-18 in PDS rats
Description: Female Sprague-Dawley rats (200-250 g, Charles River Laboratories) were acclimatized for 1 week, and mated with male Sprague-Dawley rats (275-300 g). Pregnancy was confirmed by the presence of vaginal plugs or by examination of vaginal smears. Each rat was housed separately.
Five groups of rats were studied (n=10 per group): Group 1 (NP): normal pregnant rats; Group 2 (PDS): pregnant rats injected i.p. initially with 12.5 mg of DOCA in a depot form, followed by a weekly i.p. injection of 6.5 mg of DOCA, and whose drinking water is replaced with 0.9% saline; Group 3 (NPM): Normal pregnant rats given daily injections of MBG (7.65 μg per kg body weight per day) once pregnancy was established on day four of the experiment; Group 4 (PDS-3E9): rats administered DOCA and saline as for Group 2, and also given the murine anti-MBG antibody 3E9 (2.2 mg per kg body weight per day) on days 16, 17, and 18 of pregnancy; and Group 5 (PDS-H3L2): rats administered DOCA and saline as for Group 2, and also given the humanized anti-MBG antibody H3L2 (2.2 mg per kg body weight per day) on days 16, 17, and 18 of pregnancy.
Systolic blood pressure (BP) was measured by tail cuff at days 17-19. At least 3 readings are taken after BP has stabilized, and the mean of these values was calculated. The reported BP values are the mean of the daily measurements. At 18-20 days of pregnancy, 24-hour urine was collected in the absence of food to avoid contamination of the measurement of the protein amount in urine by any fallen food particles. Each rat was housed separately in a metabolic cage during this portion of the study. The 24-hour protein excretion was measured and was normalized to creatinine. The rats were sacrificed after the last measurement on days 18-20, and blood samples were taken. The number of fetal pups was counted and examined. The mean number of pups and any developmental or histological abnormalities in the pups were assessed. Statistical analysis was performed using analysis of variance and Tukey's post hoc test. A p value ≤0.05 was considered statistically significant.

[10] = Competitive ELISA, relative CTS specificity, OUB as competitor; format: binding; conditions: competition with immobilized MBG-BSA; normalized to MBG = 100%
Description: as §1

[11] = Competitive ELISA, relative CTS specificity, RBG as competitor; format: binding; conditions: competition with immobilized MBG-BSA; normalized to MBG = 100%
Description: as §1

[12] = Direct ELISA antigen binding of humanized anti-MBG; conditions: 2 μg/ml MBG-conjugated BSA coated; OD 450 nm; among the 6 humanized antibodies; FIG. 1a, 1b
Description: The antigen binding of humanized anti-MGB was assayed in a direct Elisa assay. 2 μg/ml of MBG-conjugated BSA was coated in the Elisa plate. After blocking with 1% BSA, 2-fold dilution series of humanized anti-MBG was added to the plate. After washing, the bound antibody was detected by adding anti-human Fc HRP conjugate, and quantified by adding the TMB substrate. OD absorption at 450 nm was measured in a microplate reader.

B1: H3L2: humanized anti-MBG antibody, VH H3 (SEQ ID NO: 11) with VL L2 (SEQ ID NO: 13) (antibody, V domains shown)
VH: EVQLQESGPGLVKPSETLSLTCTVSGDSITSGYWNWIRQPPGKGLEYMGYISYSGTTYYNPSLKSRITISRDTSKNQYSLKLSSVTAADTAVYYCARARYGYGFDYWGQGTLVTVSS
VL: DVVMTQSPLSLPVTLGQPASISCRSSQSIVHSNRNTYLEWYQQRPGQSPRLLIYKVSNRFSGVPDRFSGSGSGTDFTLKISRVEAEDVGVYYCFQGSHVPLTFGGGTKVEIK
modifications: Humanized VH sequence; Humanized VL sequence
PKC-δ translocation into the nucleus, MBG plus antibody [1]: reduced | Rel. CTS Specificity as % of MBG Binding: MBG [2]: 100% | Estimated avidity (KA) (antibody concentration at 50% maximal binding to antigen, or EC50), Antigen 2 (MBG-KLH) [3]: 1.5 nM | Rel. CTS Specificity as % of MBG Binding: DIG [4]: 0% | reaction with CTS competitor molecules [5]: did not react with any of the CTS competitor molecules | Rel. CTS Specificity as % of MBG Binding: CINO [6]: 0% | Estimated avidity (KA) (antibody concentration at 50% maximal binding to antigen, or EC50), Antigen 1 (MBG-BSA) [7]: 0.6 nM | Blood Pressure-Initial [8]: 104 ± 5 mm Hg | % Malformed Pups ([9]; MBG 7.65 μg/kg/d in NPM rats): 0% | No. Pups ([9]; MBG 7.65 μg/kg/d in NPM rats): 12.9 ± 3.2 | Urine Protein ([9]; normalized to creatinine, 18-20 days of pregnancy, MBG 7.65 μg/kg/d in NPM rats): 3.5 ± 0.7 mg/24 h | Blood Pressure-Final ([9]; tail cuff, 17-19 d of gestation, MBG 7.65 μg/kg/d in normal pregnant rats (NPM), N = 10): 109.4 ± 11 mm Hg | Rel. CTS Specificity as % of MBG Binding: OUB [10]: 0% | Rel. CTS Specificity as % of MBG Binding: RBG [11]: 0% | binding affinity in direct ELISA [12]: highest binding affinity

From patent US10654925B2, “Anti-marinobufagenin antibodies and uses thereof” (priority 2018, dated 2020)
